{"source": "patent US20160327558A1", "key": {"[1]": {"biological_target": "active endogenous MALT1 (stimulated Jurkat T cells, stimulated primary human PBMCs and T cells, ABC DLBCL cells) (human) (UniProt Q9UDY8)", "assay": "ELISA-type assay on streptavidin-coated plates, 2×10^6 Jurkat T cells"}, "[2]": {"biological_target": "active endogenous MALT1 (stimulated Jurkat T cells, stimulated primary human PBMCs and T cells, ABC DLBCL cells) (human) (UniProt Q9UDY8)", "assay": "probe 7 pulldown with streptavidin beads; supernatant tested with probe 6"}}, "note": "Primed or numbered codes have the meaning given here. The star is where a group is joined. AOMK(3) = acyloxymethyl ketone at C-terminal Arg; Biotin = O=C1N[C@H]2[C@H](CS[C@H]2CCCCC(=O)*)N1"}
{"binder": "Ac-K(Biotin)LRSR-{AOMK(3)}", "note": "[probe 7 (biotin-coupled; Ac-Lys(biotin)-LRSR-AOMK)]", "values": [{"measurement": "probe concentration sufficient to obtain a robust increase in active MALT1", "setting": "[1]", "result": "< 10", "unit": "nM"}, {"measurement": "probe concentration sufficient to completely remove active MALT1 from the extracts", "setting": "[2]", "result": 100, "unit": "nM"}]}
